Data from paper PMC5738261 (Journal of molecular biology, 2017).
Where two headings read alike, the source gives them in different places.

What was measured:
[1] = molecular target: A3F-CD2 WT (human, UniProt Q8IUX4 190-373); experiment: X-ray crystallography
[2] = molecular target: T1, A3F-CD2 E251A K352A/K355A/K358A (human, UniProt Q8IUX4 190-373, E251A;K352A;K355A;K358A); experiment: EMSA
[3] = molecular target: the molecule itself; experiment: dynamic light scattering
[4] = molecular target: the molecule itself; experiment: dynamic light scattering; remark: listed apart in the source
[5] = molecular target: T1, A3F-CD2 E251A K352A/K355A/K358A; experiment: EMSA; remark: listed apart in the source

Q: Does TTTTTTTTTT (ssDNA) [10 nt poly-dT (crystal, DLS)] bind [1]?
A: Result: binds

Q: Does TTTTTTTTTT (ssDNA) [10 nt poly-dT (FAM)] bind [2]?
A: Result: no binding

B1: wild-type hA3F-CD2 (APOBEC3F C-terminal catalytic domain, residues 190-373) (domain or fragment, human, UniProt Q8IUX4 190-373, looked up)
chain: NPMEAMYPHIFYFHFKNLRKAYGRNESWLCFTMEVVKHHSPVSWKRGVFRNQVDPETHCHAERCFLSWFCDDILSPNTNYEVTWYTSWSPCPECAGEVAEFLARHSNVNLTIFTARLYYFWDTDYQEGLRSLSQEGASVEIMGYKDFKYCWENFVYNDDEPFKPWKGLKYNFLFLDSKLQEILE
Q: Which results are given for B1?
A: stoichiometry N [3]: 4; stoichiometry N [4]: 2

Q: Does AUUAUUAUUAUUUAUCCCUAUUUAUAUUUAUUGUUAUUGUUAUUGUUAUA (ssRNA) [50 nt RNA] bind [5]?
A: Result: no binding
